Data reported in patent US20230348603A1 (VERSEAU THERAPEUTICS, published 2023).
Positions count from the first letter of the chain named. Numbers in names are those of the source.

T1: Human VSIG4-L-His (human, UniProt Q9Y279 20-283)
T1 construct: long isoform ECD with His tag; also called hVSIG4-L
T1 sequence: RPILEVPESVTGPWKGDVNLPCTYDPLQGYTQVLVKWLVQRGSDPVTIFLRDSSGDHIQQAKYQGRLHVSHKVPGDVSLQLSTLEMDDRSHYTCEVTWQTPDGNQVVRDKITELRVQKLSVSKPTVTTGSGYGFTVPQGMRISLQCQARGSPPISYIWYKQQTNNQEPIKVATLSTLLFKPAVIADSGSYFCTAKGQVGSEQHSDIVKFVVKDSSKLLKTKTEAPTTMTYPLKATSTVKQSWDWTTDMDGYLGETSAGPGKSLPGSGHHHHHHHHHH

T2: Cynomolgus Monkey VSIG4-L-His (cynomolgus monkey)
T2 construct: ECD with His tag; also called cyVSIG4-L; cyno VSIG4-L-His
T2 chain: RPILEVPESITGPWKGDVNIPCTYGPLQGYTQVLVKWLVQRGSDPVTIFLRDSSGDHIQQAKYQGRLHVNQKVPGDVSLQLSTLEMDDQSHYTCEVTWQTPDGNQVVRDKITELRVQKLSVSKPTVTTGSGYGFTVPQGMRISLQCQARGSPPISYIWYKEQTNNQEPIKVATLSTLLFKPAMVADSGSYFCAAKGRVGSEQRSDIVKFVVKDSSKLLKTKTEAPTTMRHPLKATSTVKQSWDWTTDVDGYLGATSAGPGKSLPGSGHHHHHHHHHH

B1: h16E10.D humanized IgG4 (S228P) kappa (antibody)
heavy: not shown
light: DIVLTQSPLSLPVTPGEPASISCRSSQSLLNSGNQENYLAWYLQKPGQSPQLLIYGASTRESGVPDRFSGSGSGTDFTLKISRVEAEDVGVYYCQNDHSYPLTFGGGTKLEIKRTVAAPSVFIFPPSDEQLKSGTASVVCLLNNFYPREAKVQWKVDNALQSGNSQESVTEQDSKDSTYSLSSTLTLSKADYEKHKVYACEVTHQGLSSPVTKSFNRGEC
B2: h16E10.E humanized IgG4 (S228P) kappa (antibody)
heavy: not shown
light: B1 light
B3: h16E10.F humanized IgG4 (S228P) kappa (antibody)
heavy: not shown
light: B1 light with L4M
B4: h16E10.G humanized IgG4 (S228P) kappa (antibody)
heavy: not shown
light: B1 light with L4M
B5: h14D12.D humanized IgG4 (S228P) kappa (antibody)
heavy: not shown
light: DVQMTQSPSSLSASVGDRVTITCRASQSVDYDGDSYMNWYQQKPGKAPKLLIYAASNLESGVPSRFSGSGSGTDFTLTISSLQPEDFATYYCQQSNEDPRTFGGGTKLEIKRTVAAPSVFIFPPSDEQLKSGTASVVCLLNNFYPREAKVQWKVDNALQSGNSQESVTEQDSKDSTYSLSSTLTLSKADYEKHKVYACEVTHQGLSSPVTKSFNRGEC
B6: h14D12.G humanized IgG4 (S228P) kappa (antibody)
heavy: not shown
light: B5 light with V2I
B7: h14D12.E humanized IgG4 (S228P) kappa (antibody, V domains shown)
VH: QIQLVQSGSELKKPGASVKVSCKASGYTFTNYGMNWVRQAPGQGLEWMGLINTYTGEPTYADGFTGRFVFSLDTSVSTAYLQISSLKAEDTAVYYCARERIYGYLHYFDYWGQGTTVTVSS
VL: DVQMTQSPSSLSASVGDRVTITCRASQSVDYDGDSYMNWYQQKPGKAPKLLIYAASNLESGVPSRFSGSGSGTDFTLTISSLQPEDFATYYCQQSNEDPRTFGGGTKLEIKR
B8: h14D12.F humanized IgG4 (S228P) kappa (antibody, V domains shown)
VH: QIQLVQSGAEVKKPGASVKVSCKASGYTFTNYGMNWVRQAPGQGLEWMGLINTYTGEPTYADKFQGRVTMTLDTSTSTAYMELSSLRSEDTAVYYCARERIYGYLHYFDYWGQGTTVTVSS
VL: B7 VL
B9: h14D12.H humanized IgG4 (S228P) kappa (antibody, V domains shown)
VH: B8 VH with M70F, T76A, Y95F
VL: B7 VL with V2I
B10: h16E10.C humanized IgG4 (S228P) kappa (antibody, V domains shown)
VH: QVQLVQSGAEVKKPGASVKVSCKASGYTFTNYWLGWVRQAPGQGLEWMGDIYPGGGYTNYNEKFQGRVTMTADTSTSTAYMELSSLRSEDTAVYYCAKFYYYGSSYYFDSWGQGTTVTVSS
VL: DIVMTQSPDSLAVSLGERATINCKSSQSLLNSGNQENYLAWYQQKPGQPPKLLIYGASTRESGVPDRFSGSGSGTDFTLTISSLQAEDVAVYYCQNDHSYPLTFGGGTKLEIKR
B11: 13E11.A4 mouse/human chimeric IgG4 (S228P) kappa (antibody)
heavy: not shown
light: DIVMTQSHKFMSTSVGDNVSITCKASQYVSNTVAWYQQKPGQSPKLLIYSASYRNTGVPDRFTGSGSGTNFTFTISNMQAEDLAFYYCQQHYTSPLTFGAGTKLELKRTVAAPSVFIFPPSDEQLKSGTASVVCLLNNFYPREAKVQWKVDNALQSGNSQESVTEQDSKDSTYSLSSTLTLSKADYEKHKVYACEVTHQGLSSPVTKSFNRGEC
B12: 5D2.C8 mouse/human chimeric IgG4 (S228P) kappa (antibody, V domains shown)
VH: EVKLVESGGGLVKPGGSLKLSCAVSGFTFSNSAMSWVRQTPAKRLEWVAYISISGDNTYYPDSVKGRFTISRDNAKNTLYLQMSSLRSEDTAMYYCARRGYDYDGFTHWGQGTLVTVSA
VL: DILLTQSPAILSVSPGERVSFSCRASQNIGTSIHWYQQRTNGSPRLLIKYASQSISGIPSRFSGSGSGTDFTLSINSVESEDIADYYCQQSYSWPLTFGTGTQLELKR
B13: 14F8.H6 mouse/human chimeric IgG4 (S228P) kappa (antibody, V domains shown)
VH: EVHLVESGGALVKPGGSLKLSCTASGFTFSNSVMSWIRQTPEKRLEWVATIGSGGTYIYYPDSVKGRFTISRDNSKNTLFLQMTSLRSEDTALYYCARHIYGYDVVDYWGQGTTLTVST
VL: DIVMTQSHRFMSTSVGDRVSITCKASHDVSNVVAWYQQKPGQSPELLIYSASYRYTGVPARFTGSGSGTDFTFTISSVQAEDLAVYFCQQHFTTPLTFGAGTSLEVRR
B14: 10E8.B6 mouse/human chimeric IgG4 (S228P) kappa (antibody, V domains shown)
VH: EVQLQQSGPELMKPGDSVKMSCKASGYTFTDYYMDWVKQSHGKSLEWIGYIYPNIDFTTYNQKFKGKATLTVDKSSNTAYMELHSLTSEDSAVYYCTRRDLPLHGSAYYFDYWGQGTTLTVSS
VL: DIVMSQSPSSLAVSAGEKVTMSCKSSQSLLNSRTRKNYLAWYQQKPGQSPKLLIYWASTRESGVPDRFTGSGSGTDFTLTISSVQAEDLAVYYCKQSYDLFTFGSGTKLEIKR
B15: 1C6.D6 mouse/human chimeric IgG4 (S228P) kappa (antibody, V domains shown)
VH: QVQLQQPGAEMVRPGTSVKLSCKASGYTFTSYWMHWVKQRPGQGLEWIGKIDPSHNKTHYIQKFEDKATLTVDKSSSTAYMHLNSLTSEDSAVYYCVTWDGDFLYWGQGTLVTVSA
VL: NIVLTQSPASLTVSLGQRATISCRASESVDSYGNSFMHWYQQKPGQPPKLLIYITSNLQSGVPARFSGGGSRTDFTLTIDPVEADDAATYYCQQNNEDPWTFGGGTKLEIKR
notes: also called 1C6.D6b
B16: 16F6.E1 mouse/human chimeric IgG4 (S228P) kappa (antibody, V domains shown)
VH: QVQLQQPGAEMVRPGASLKLSCKASGYTFTSYWMHWVKQRPGQGLEWIGKIDPSKNTTHYNQNFRDKATLTVDRSSSTAYMQLNSLTSEDSAVYFCVTWDGDFTYWGQGTLVTISA
VL: B15 VL with A9P, T12A, I54L, T55A, Q59E, G69S, Y91F, Q93H
B17: EU103.2 anti-VSIG4 antibody, human IgG4 (S228P) kappa (antibody, V domains shown)
VH: QVQLQESGPGLVKPSQTLSLTCSFSGISLTTSGMGVGWIRQPPGKGLEWLADIFWDDNKYYNPSLKSRVTISVDTSKNQFSLKLSSVTAADTAVYYCVRVYYKNDGYFDVWGQGTLVTVSS
VL: EIVMTQSPATLSVSPGERATLSCRASKSVTTSGYSFMHWYQQKPGQAPRLLIYLASNLEPGIPARFSGSGSGTEFTLTISSLQSEDFAVYYCQHSRELPYTFGQGTKLEIKR
notes: variable regions from U.S. Pat. Publ
B18: A1 anti-VSIG4 antibody, human IgG4 (S228P) kappa (antibody, V domains shown)
VH: QVTLKESGPTLVKPTQTLTLTCTFSGISLTTSGMGVGWIRQPPGKALEWLADIFWDDNKYYNPSLKSRLTITKDTSKNQVVLTMTNMDPVDTATYYCVRVYYKNDGYFDVWGKGTTVTVSS
VL: DIVLTQSPLSLPVTLGQPASISCRASKSVTTSGYSFMHWYQQRPGQSPRLLIYLASNLEPGVPDRFSGSGSGTDFTLKISRVEAEDVGVYYCQQSGELPYTFGQGTKLEIKR
notes: as for B17
B19: 1H7.C7 mouse/human chimeric IgG4 (S228P) kappa (antibody, V domains shown)
VH: EVQLVESGGGLVMPGGSRRLSCAASGFTFSDSGMYWVRQAPEKGLEWIAYISSGSDTLYYAATVKGRFTISRDNAKNTLFLQMTSLRSEDTAIYYCAKRNFYGYDVMDYWGQGTSVTVSS
VL: DIVMTQSHKFMSTSVGDRVSITCKASQDVSNVVAWYQQKPGQSPKLLIYSASYRYTGVPDRFAGSGSGTDFTFTISSVQAEDLAVYYCQQHYSTPWTFGGGTKLEIKR
B20: 9A10.C4 mouse/human chimeric IgG4 (S228P) kappa (antibody, V domains shown)
VH: EVQLVESGGALVQPGGSLKLSCVASGFSFSNCVMSWVRQSPEKRLEWVATIGSDGSYSYYQDNVKGRFTVSRDNAKNTLYLQMSSLGSEDTALYYCGRHIYGYDVVDYWGQGTSLTVSS
VL: B19 VL with S20T, Y36F, Y55F, T56G, A63T, S93D, W96L, G100T, K103T, I106L

target: T1, Human VSIG4-L-His; experiment: BLI, IgG on AHC sensor, antigen 100 nM

Binder | KD relative to parental chimera
B1 | 0.6 fold
B2 | 0.8 fold
B3 | 0.7 fold
B4 | 0.9 fold
B5 | 1 fold
B6 | 1 fold
B7 | 0.9 fold
B8 | 0.8 fold
B9 | 1.1 fold
B10 | 1.7 fold

Target: T2, Cynomolgus Monkey VSIG4-L-His
Experiment: BLI, IgG on AHC sensor, antigen 100 nM

Binder | KD relative to parental chimera
B1 | 1.1 fold
B2 | 1.3 fold
B3 | 1 fold
B4 | 0.4 fold
B5 | 1 fold
B6 | 1.1 fold
B7 | 0.9 fold
B8 | 1 fold
B9 | 1.2 fold
B10 | 1.1 fold

target: T3, Human VSIG4-L-Fc (human); experiment: BLI cross-blocking on hVSIG4-L-Fc, competitor 12A12 first
T3 construct: also called hVSIG4-L-Fc; hVSIG4-L

Binder | binding signal (nm shift)
B11 | 0.07 nm
B12 | 0.07 nm
B13 | 0.1 nm
B14 | 0.06 nm
B15 | 0.08 nm
B16 | 0.09 nm
B17 | 0.3 nm
B18 | 0.57 nm
B19 | 0.08 nm
B20 | 0.1 nm

target: T3, Human VSIG4-L-Fc; experiment: BLI cross-blocking on hVSIG4-L-Fc, competitor 14C05 first

Binder | binding signal (nm shift)
B11 | 0.24 nm
B12 | 0.12 nm
B13 | 0.15 nm
B14 | 0.11 nm
B15 | 0.59 nm
B16 | 0.56 nm
B17 | 0.29 nm
B18 | 0.55 nm
B19 | 0.13 nm
B20 | 0.14 nm
